This is an account of results in patent US20240166765A1, “INFLAMMATORY DISEASE TREATMENT USING ANTI-TISSUE FACTOR ANTIBODIES” (Iconic Therapeutics LLC, priority 2020, published 2024).

What all share (assay): Epitope binning, chimeric TF construct mapping (live cell staining assay)
Common to all, as to assay type: binding

The target of experiment [1] is T1, chimeric human-rat TF constructs expressed on HEK293 cells (Homo sapiens, UniProt P13726, A112W/A121H/DEL115-116/DUP123-123/G113R/INS118HGKETLF/L125P/S120T/Y110V).
T1 construct: expressed in transfected cells; host or cells: HEK293
The conditions noted are these: construct h78-93_r (18); human segment replaced by rat segment. As to the method:
(§1) To establish binding of the anti-human TF antibodies to the various TF constructs, HEK293 cells were transfected with a DNA plasmid that co-expresses the TF construct and a green fluorescent protein marker. For a subset of the antibodies, an antibody titration (a 12-point 1:3 dilution series starting at 250 nM) was evaluated on select TF constructs (See international PCT application PCT/US2019/012427 and U.S. utility application Ser. No. 16/959,652, incorporated herein by reference in their entirety). […] Two days after transfection, cells were collected from the tissue culture plate, stained with 15 μg/ml of the indicated anti-TF antibody, washed, stained with anti-human IgG-Fc Alexa Fluor 647 polyclonal antibody, washed, and stained with the viability dye 4′,6-Diamidino-2-Phenylindole, Dihydrochloride. Upon acquisition of 80,000 live events on a flow cytometer, live cells marked with the fluorescent marker were analyzed for the degree of staining by the anti-TF antibody. […] As used herein, the term “live cell staining assay” refers to the antibody binding assay used in this example.
(§2) When “Percentage antibody binding to TF construct relative to hTF” in Tables 51 and 52 was less than 50%, the antibody was considered a non-binder (0) in Tables 53 and 54.

Experiment [2] deals with T2, chimeric human-rat TF constructs expressed on HEK293 cells (Homo sapiens, UniProt P13726, D177Q/S174T).
T2 construct: expressed in transfected cells; host or cells: HEK293
The following applies: construct h140-145_r (2); human segment replaced by rat segment. As to the method: as §1, §2

Experiment [3] addresses T3, chimeric human-rat TF constructs expressed on HEK293 cells (Homo sapiens, UniProt P13726, E160K/E162S/F148Y/L140I/N156K/R163F/S147K/T144V/V151G/V155L).
T3 construct: expressed in transfected cells; host or cells: HEK293
The conditions noted are these: construct h108-132_r (10); human segment replaced by rat segment. As to the method: as §1, §2

The target of experiment [4] is T4, chimeric human-rat TF constructs expressed on HEK293 cells (Homo sapiens, UniProt P13726, D76N/E58Q/F108L/F82T/G75R/K100N/K47I/K73R/L104E/N50D/Q101W/Q64Y/S79Y/T72D/V62T/V65T/Y83G).
T4 construct: expressed in transfected cells; host or cells: HEK293
The following applies: construct h1-77_r (25); human segment replaced by rat segment. As to the method:
as §1, §2

Experiment [5] addresses T5, chimeric human-rat TF constructs expressed on HEK293 cells (Homo sapiens, UniProt P13726, A200N/K201T/N203H).
T5 construct: expressed in transfected cells; host or cells: HEK293
The following applies: construct h167-174_r (3); human segment replaced by rat segment. As to the method: as §1, §2

Experiment [6] concerns the target T6, chimeric human-rat TF constructs expressed on HEK293 cells (Homo sapiens, UniProt P13726, I184G/T186I/W190R/Y188T).
T6 construct: expressed in transfected cells; host or cells: HEK293
The conditions noted are these: construct h152-158_r (4); human segment replaced by rat segment. As to the method: as §1, §2

The target of experiment [7] is T7, chimeric human-rat TF constructs expressed on HEK293 cells (Homo sapiens, UniProt P13726, A200N/K197R/K201T/N203H/S192D/S195T).
T7 construct: expressed in transfected cells; host or cells: HEK293
The conditions noted are these: construct h159-174_r (6); human segment replaced by rat segment. As for the experimental part: as §1, §2

Experiment [8] has as its system chimeric human-rat TF constructs expressed on HEK293 cells. As to the method: as §1, §2
Experiment [9] addresses T8, chimeric human-rat TF constructs expressed on HEK293 cells (Homo sapiens, UniProt P13726, E127T/E131K/E137D/L136R/N139K/P130R/S129A/T133L/Y126F).
T8 construct: expressed in transfected cells; host or cells: HEK293
The conditions noted are these: construct h94-107_r (9); human segment replaced by rat segment. As for the experimental part:
as §1, §2

Experiment [10] concerns the target T9, chimeric human-rat TF constructs expressed on HEK293 cells (Homo sapiens, UniProt P13726, D212E/E215V/N216S/S220F/V221A).
T9 construct: expressed in transfected cells; host or cells: HEK293
The following applies: construct h175-189_r (5); human segment replaced by rat segment. As to the method:
as §1, §2

Experiment [11] addresses T10, chimeric human-rat TF constructs expressed on HEK293 cells (Homo sapiens, UniProt P13726, A112W/A121H/DEL115-116/DUP123-123/E127T/E131K/E137D/G113R/INS118HGKETLF/L125P/L136R/N139K/P130R/S120T/S129A/T133L/Y110V/Y126F).
T10 construct: expressed in transfected cells; host or cells: HEK293
The following applies: construct h78-107_r.v2 (27); human segment replaced by rat segment. As for the experimental part: as §1, §2

The target of experiment [12] is T11, chimeric human-rat TF constructs expressed on HEK293 cells (Homo sapiens, UniProt P13726, A200N/D212E/E215V/K197R/K201T/N203H/N216S/S192D/S195T/S220F/V221A).
T11 construct: expressed in transfected cells; host or cells: HEK293
The conditions noted are these: construct h159-189_r (11); human segment replaced by rat segment. As to the method: as §1, §2

Experiment [13] has as its target T12, chimeric human-rat TF constructs expressed on HEK293 cells (Homo sapiens, UniProt P13726, D177Q/I184G/K181N/N170G/R168K/S174T/T186I/W190R/Y188T).
T12 construct: expressed in transfected cells; host or cells: HEK293
The conditions noted are these: construct h133-158_r (9); human segment replaced by rat segment. As to the method:
as §1, §2

The target of experiment [14] is T13, chimeric human-rat TF constructs expressed on HEK293 cells (Homo sapiens, UniProt P13726, N170G/R168K).
T13 construct: expressed in transfected cells; host or cells: HEK293
The conditions noted are these: construct h133-139_r (2); human segment replaced by rat segment. As to the method:
as §1, §2

Experiment [15] concerns the target T14, chimeric human-rat TF constructs expressed on HEK293 cells (Homo sapiens, UniProt P13726, D177Q/N170G/R168K/S174T).
T14 construct: expressed in transfected cells; host or cells: HEK293
The following applies: construct h133-145_r (4); human segment replaced by rat segment. As for the experimental part:
as §1, §2

For TF-011, the “Antibody binding to TF construct” value was 1 (between 50% and 150%, the antibody was considered a binder (1)) in experiment [1]; 1 (between 50% and 150%, the antibody was considered a binder (1)) in experiment [2]; 1 (between 50% and 150%, the antibody was considered a binder (1)) in experiment [3]; 0 (less than 50%, the antibody was considered a non-binder (0)) in experiment [4]; 1 (between 50% and 150%, the antibody was considered a binder (1)) in [5]; 1 (between 50% and 150%, the antibody was considered a binder (1)) in experiment [6]. Moreover, the “Antibody binding to TF construct” value is 1 (between 50% and 150%, the antibody was considered a binder (1)) in experiment [7]; 0 (less than 50%, the antibody was considered a non-binder (0)) in experiment [8] (Table 53, construct rTF); 0 (less than 50%, the antibody was considered a non-binder (0)) in experiment [8] (Table 54, construct rTF); 0 (less than 50%, the antibody was considered a non-binder (0)) in experiment [8] (construct h78-107_r (21), human segment replaced by rat segment); 1 (between 50% and 150%, the antibody was considered a binder (1)) in [8] (construct h108-219_r (46), human segment replaced by rat segment); 1 (between 50% and 150%, the antibody was considered a binder (1)) in [8] (construct h159-219_r (27), human segment replaced by rat segment). The “Antibody binding to TF construct” value in experiment [8] (construct r141-194_h (rat amino acid segment replaced by human segment, 20 amino acid changes)) is 0 (less than 50%, the antibody was considered a non-binder (0)); in experiment [9], 0 (less than 50%, the antibody was considered a non-binder (0)); in [10], 1 (between 50% and 150%, the antibody was considered a binder (1)); in experiment [11], 0 (less than 50%, the antibody was considered a non-binder (0)); in [12], 1 (between 50% and 150%, the antibody was considered a binder (1)); in [13], 1 (between 50% and 150%, the antibody was considered a binder (1)). Besides, the “Antibody binding to TF construct” value in [14] was 1 (between 50% and 150%, the antibody was considered a binder (1)); in experiment [15], 1 (between 50% and 150%, the antibody was considered a binder (1)). The “Constructs not bound by antibody” value in experiment [8] (chimeric human-rat TF constructs) is listed as “rTF, h1-107_r, h1-77_r, h39-77_r, h78-107_r, h78-107_r.v2, h94-107_r”.
